Where a chain is given by its changes, count along the chain named. Where two headings read alike, the source gives them in different places.

One test concerns the target active hMMP-9(cat)_Y420A (UniProt P14780 107-449). The test can be described thus: substrate peptide enzyme inhibition.
In the next test the target is active hMMP-9(cat)_Y423A (UniProt P14780 107-449). Put plainly: substrate peptide enzyme inhibition.
A further test has as its target active hMMP-9(cat)_R424T (UniProt P14780 107-449). The test can be described thus: substrate peptide enzyme inhibition.
Another test concerns the target active hMMP-9(cat)_Y393A (UniProt P14780 107-449). Put plainly: substrate peptide enzyme inhibition.
For another test, the target named is active hMMP-9(cat)_L397A (UniProt P14780 107-449). The test can be described thus: substrate peptide enzyme inhibition.
Chain of active hMMP-9(cat)_L397A (P14780 107-449 L397A): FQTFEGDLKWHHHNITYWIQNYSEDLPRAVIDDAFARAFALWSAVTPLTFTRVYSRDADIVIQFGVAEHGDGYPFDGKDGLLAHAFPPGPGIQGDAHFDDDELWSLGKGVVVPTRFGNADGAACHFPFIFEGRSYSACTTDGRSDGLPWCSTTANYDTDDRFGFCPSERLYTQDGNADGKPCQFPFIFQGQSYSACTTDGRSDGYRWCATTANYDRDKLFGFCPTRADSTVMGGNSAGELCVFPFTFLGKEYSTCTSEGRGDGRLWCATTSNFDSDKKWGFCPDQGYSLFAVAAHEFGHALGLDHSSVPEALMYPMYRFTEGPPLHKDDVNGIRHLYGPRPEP
A further test concerns the target active hMMP-9(cat)_Y179A (UniProt P14780 107-449). Put plainly: substrate peptide degradation inhibition.
For a further test, the target named is active hMMP-9(cat)_P193A (UniProt P14780 107-449). The test can be described thus: substrate peptide degradation inhibition.
Chain of active hMMP-9(cat)_P193A (P14780 107-449 P193A): as the sequence (P14780 107-449 L397A) above, with P87A, A291L counted along it
The next test addresses active hMMP-9(cat)_Q199G (UniProt P14780 107-449). Put plainly: substrate peptide degradation inhibition.
In the next test the target is active hMMP-9(cat)_D185A (UniProt P14780 107-449). Put plainly: substrate peptide degradation inhibition.
Chain of active hMMP-9(cat)_D185A (P14780 107-449 D185A): as the sequence (P14780 107-449 L397A) above, with D79A, A291L counted along it
The next test has as its target active hMMP-9(cat)_F110A (UniProt P14780 107-449). The test can be described thus: substrate peptide degradation inhibition.
A further test addresses active hMMP-9(cat)_F192A (UniProt P14780 107-449). The test can be described thus: substrate peptide degradation inhibition.
For test [1], the target named is T1, active hMMP-9(cat)_His6 (UniProt P14780 107-449). Put plainly: enzyme inhibition; substrate peptide.
T1 sequence (P14780 107-449): as the sequence (P14780 107-449 L397A) above, with A291L counted along it
The target of test [2] is T1, active hMMP-9(cat)_His6. The test can be described thus: enzyme inhibition; substrate peptide. The source holds these as a separate data set.
The next test concerns the target active hMMP-9(cat)_L187A (UniProt P14780 107-449). Put plainly: substrate peptide degradation inhibition.

Chain of active hMMP-9(cat)_Y420A (P14780 107-449 Y420A): as the sequence (P14780 107-449 L397A) above, with A291L, Y314A counted along it
Chain of active hMMP-9(cat)_F110A (P14780 107-449 F110A): as the sequence (P14780 107-449 L397A) above, with F4A, A291L counted along it
Chain of active hMMP-9(cat)_Y393A (P14780 107-449 Y393A): as the sequence (P14780 107-449 L397A) above, with Y287A, A291L counted along it
Chain of active hMMP-9(cat)_F192A (P14780 107-449 F192A): as the sequence (P14780 107-449 L397A) above, with F86A, A291L counted along it
Chain of active hMMP-9(cat)_Y179A (P14780 107-449 Y179A): as the sequence (P14780 107-449 L397A) above, with Y73A, A291L counted along it
Chain of active hMMP-9(cat)_Q199G (P14780 107-449 Q199G): as the sequence (P14780 107-449 L397A) above, with Q93G, A291L counted along it
Chain of active hMMP-9(cat)_R424T (P14780 107-449 R424T): as the sequence (P14780 107-449 L397A) above, with A291L, R318T counted along it
Chain of active hMMP-9(cat)_Y423A (P14780 107-449 Y423A): as the sequence (P14780 107-449 L397A) above, with A291L, Y317A counted along it
Chain of active hMMP-9(cat)_L187A (P14780 107-449 L187A): as the sequence (P14780 107-449 L397A) above, with L81A, A291L counted along it

B1: active MMP-9-binding peptide M91011 (designed binder)
chain: GSGMKETAAAKFERQHMDSPDLGTDDDDKAMADIGSANSDPQFGLFSKYRTPNCMMYKYAQCSHKSQPVCGSDMSTYANECTLCMKIREGGHNIKIIRNGPCGASAAA
As for B1, the IC50 (in general, the concentration needed to halve the response being measured) with active hMMP-9(cat)_Y420A is 33 nM; with active hMMP-9(cat)_Y423A it was > 330 nM; in the test with active hMMP-9(cat)_R424T, 45 nM; with active hMMP-9(cat)_Y393A it was > 950 nM; in the test with active hMMP-9(cat)_L397A it was 57 nM; in the test with active hMMP-9(cat)_Y179A it was 81 nM. The IC50 came out at 110 nM in the test with active hMMP-9(cat)_P193A; 22 nM in the test with active hMMP-9(cat)_Q199G; 310 nM with active hMMP-9(cat)_D185A; 7.3 nM with active hMMP-9(cat)_F110A; 83 nM with active hMMP-9(cat)_F192A.

B2: active MMP-9-binding peptide M91002 (designed binder)
chain: GSGMKETAAAKFERQHMDSPDLGTDDDDKAMADIGSANSDPQFGLFSKYRTPNCRTGRGPACQMGFQPVCGSDMSTYANECTLCMKIREGGHNIKIIRNGPCGASAAA
As to B2, 5 nM corresponded to half-maximal inhibition with active hMMP-9(cat)_His6 [1] (IC50).

B3: active MMP-9-binding peptide M91005 (designed binder)
chain: B2 chain with T56K, G57R, R58G, A61S, G65S, F66Y, Q67N
Consider B3, for which the IC50 was 1.1 nM with active hMMP-9(cat)_His6 [2]; 54 nM in the test with active hMMP-9(cat)_Y420A; 230 nM with active hMMP-9(cat)_Y423A; 31 nM in the test with active hMMP-9(cat)_R424T; 48 nM with active hMMP-9(cat)_Y393A; 37 nM in the test with active hMMP-9(cat)_L397A. For the same molecule, the IC50 with active hMMP-9(cat)_L187A turned out to be 120 nM; with active hMMP-9(cat)_Y179A, 55 nM; with active hMMP-9(cat)_P193A, 13 nM; in the test with active hMMP-9(cat)_Q199G it was 40 nM; in the test with active hMMP-9(cat)_D185A, 29 nM; in the test with active hMMP-9(cat)_F110A it was 69 nM. Further, the concentration for half-maximal inhibition (IC50) with active hMMP-9(cat)_F192A is > 1000 nM.

The record behind these values is patent US20200231654A1 (published 2020).
